Holding throughout (test): BLI, antibody on AHC sensor, antigen as analyte
On the technique in general: In BLI a coated tip is dipped into the sample, and binding shifts an interference pattern.

Test [1] concerns the target T1, recombinant human tumor antigen HER2 (ERBB2, ACRO systems, HE2-H5212) (human, UniProt P04626 23-652).
T1 construct: Bought

For test [2], the target named is T2, recombinant human tumor antigen CEACAM-6 (ACRO systems, CE6-H5223) (human, UniProt P40199 35-320).
T2 construct: Bought
T2 sequence (looked up): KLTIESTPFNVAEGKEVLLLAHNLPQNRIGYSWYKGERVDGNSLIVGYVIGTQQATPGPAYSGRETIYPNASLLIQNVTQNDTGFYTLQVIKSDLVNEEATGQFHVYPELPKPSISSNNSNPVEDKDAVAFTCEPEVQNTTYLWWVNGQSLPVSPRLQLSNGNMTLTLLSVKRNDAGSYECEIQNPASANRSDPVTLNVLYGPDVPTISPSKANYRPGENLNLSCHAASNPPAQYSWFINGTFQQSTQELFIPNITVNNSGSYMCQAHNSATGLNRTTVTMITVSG

The target of test [3] is T3, recombinant human protein CD3ε/δ (ACRO systems, CDD-H52W1) (human, UniProt P07766 23-126; P04234 22-105).
T3 construct: Bought heterodimer
T3 sequence (P07766 23-126, stated change not applied, chain 1 of 2): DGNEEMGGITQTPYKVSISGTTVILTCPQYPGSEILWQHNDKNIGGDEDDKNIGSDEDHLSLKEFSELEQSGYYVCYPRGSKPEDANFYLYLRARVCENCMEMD
T3 sequence (P04234 22-105, stated change not applied, chain 2 of 2): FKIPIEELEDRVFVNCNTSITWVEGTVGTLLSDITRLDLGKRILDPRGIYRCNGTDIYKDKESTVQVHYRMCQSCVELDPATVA

B1: unilateral CD3/CEA-CAM6/HER2 trispecific antibody 701 (other)
chain 1: EVKLLESGGGLVQPKGSLKLSCAASGFTFNTYAMNWVRQAPGKGLEWVARIRSKYNNYATYYADSVKDRFTISRDDSQSILYLQMNNLKTEDTAMYYCVRHGNFGNSYVSWFAYWGQGTLVTVSSASTKGPSVFPLAPCSRSTSESTAALGCLVKDYFPEPVTVSWNSGALTSGVHTFPAVLQSSGLYSLSSVVTVPSSSLGTKTYTCNVDHKPSNTKVDKRVESKYGPPCPPCPAPEAAGGPSVFLFPPKPKDTLMISRTPEVTCVVVDVSQEDPEVQFNWYVDGVEVHNAKTKPREEQFNSTYRVVSVLTVLHQDWLNGKEYKCKVSNKGLPSSIEKTISKAKGQPREPQVYTLPPCQEEMTKNQVSLWCLVKGFYPSDIAVEWESNGQPENNYKTTPPVLDSDGSFFLYSRLTVDKSRWQEGNVFSCSVMHEALHNHYTQKSLSLSL
chain 2: QVQLVQSGGGLVQAGGSLRLSCAASGRTFSSYAMAWFRQAPGKEREFVAAISWSGANIYVADSVKGRFTISRDNAKDTVYLQMNSLKPEDTAVYYCAVKLGFAPVEERQYDYWGQGTQVTVSSESKYGPPCPPCPAPEAAGGPSVFLFPPKPKDTLMISRTPEVTCVVVDVSQEDPEVQFNWYVDGVEVHNAKTKPREEQFNSTYRVVSVLTVLHQDWLNGKEYKCKVSNKGLPSSIEKTISKAKGQPREPQVCTLPPSQEEMTKNQVSLSCAVKGFYPSDIAVEWESNGQPENNYKTTPPVLDSDGSFFLVSRLTVDKSRWQEGNVFSCSVMHEALHNRFTQKSLSLSL
chain 3: QAVVTQESALTTSPGETVTLTCRSSTGAVTTSNYANWVQEKPDHLFTGLIGGTNKRAPGVPARFSGSLIGDKAALTITGAQTEDEAIYFCALWYSNLWVFGGGTKVEIKRTVAAPSVFIFPPSDEQLKSGTASVVCLLNNFYPREAKVQWKVDNALQSGNSQESVTEQDSKDSTYSLSSTLTLSKADYEKHKVYACEVTHQGLSSPVTKSFNRGECGGGGSGGGGSQVKLEESGGGLVQAGGSLRLSCRTSGRTNSVYTMGWFRQAPGKEREFVAQIMWGAGTNTHYADSVKGRFTISRDSAESTVYLQMNSLKPEDTAVYYCAANRGIPIAGRQYDYWGQGTQVTVSS
Take B1: in test [1], the Kd (commonly the equilibrium constant for the complex coming apart) came out at 37.5 nM; the off-rate (koff) – broadly, the rate constant with which the complex falls apart – worked out at 0.00693 s⁻¹; the kon – broadly, a measure of how fast the partners come together – is 185000 M⁻¹ s⁻¹. For the same molecule, in test [2], the Kd turned out to be 13.3 nM, the koff turned out to be 0.00297 s⁻¹ and the kon worked out at 223000 M⁻¹ s⁻¹. Besides, in test [3], the Kd was determined as 1.3 nM, the koff turned out to be 0.000402 s⁻¹ and the on-rate constant (kon) was 309000 M⁻¹ s⁻¹.

B2: unilateral CD3/CEA-CAM6/HER2 trispecific antibody 703 (other)
chain 1: B1 chain 1
chain 2: B1 chain 2
chain 3: QVKLEESGGGLVQAGGSLRLSCRTSGRTNSVYTMGWFRQAPGKEREFVAQIMWGAGTNTHYADSVKGRFTISRDSAESTVYLQMNSLKPEDTAVYYCAANRGIPIAGRQYDYWGQGTQVTVSSGGGGSGGGGSQAVVTQESALTTSPGETVTLTCRSSTGAVTTSNYANWVQEKPDHLFTGLIGGTNKRAPGVPARFSGSLIGDKAALTITGAQTEDEAIYFCALWYSNLWVFGGGTKVEIKRTVAAPSVFIFPPSDEQLKSGTASVVCLLNNFYPREAKVQWKVDNALQSGNSQESVTEQDSKDSTYSLSSTLTLSKADYEKHKVYACEVTHQGLSSPVTKSFNRGEC
As for B2, in test [1], the Kd was 16.3 nM, the koff was found to be 0.00356 s⁻¹ and the on-rate constant (kon) worked out at 218000 M⁻¹ s⁻¹. In test [2], the Kd was 5.16 nM, the koff came to 0.00187 s⁻¹ and the kon was found to be 363000 M⁻¹ s⁻¹. Further, in test [3], the Kd turned out to be 0.379 nM, the koff turned out to be 8.4e-05 s⁻¹ and the kon turned out to be 222000 M⁻¹ s⁻¹.
